From IntAct's records for PubMed 20727515

B1: TBC1 domain family member 24 (Homo sapiens), Q9ULP9-2 (parent)
chain: MDSPGYNCFVDKDKMDAAIQDLGPKELSCTELQELKQLARQGYWAQSHALRGKVYQRLIRDIPCRTVTPDASVYSDIVGKIVGKHSSSCLPLPEFVDNTQVPSYCLNARGEGAVRKILLCLANQFPDISFCPALPAVVALLLHYSIDEAECFEKACRILACNDPGRRLIDQSFLAFESSCMTFGDLVNKYCQAAHKLMVAVSEDVLQVYADWQRWLFGELPLCYFARVFDVFLVEGYKVLYRVALAILKFFHKVRAGQPLESDSVKQDIRTFVRDIAKTVSPEKLLEKAFAIRLFSRKEIQLLQMANEKALKQKGITVKQKRQFVHLAVHAENFRSEIVSVREMRDIWSWVPERFALCQPLLLFSSLQHGYSLARFYFQCEGHEPTLLLIKTTQKEVCGAYLSTDWSERNKFGGKLGFFGTGECFVFRLQPEVQRYEWVVIKHPELTKPPPLMAAEPTAPLSHSASSDPADRLSPFLAARHFNLPSKTESMFMAGGSDCLIVGGGGGQALYIDGDLNRGRTSHCDTFNNQPLCSENFLIAAVEAWGFQDPDTQ
B2: ADP-ribosylation factor 6 (Homo sapiens), P62330 (parent)
chain: MGKVLSKIFGNKEMRILMLGLDAAGKTTILYKLKLGQSVTTIPTVGFNVETVTYKNVKFNVWDVGGQDKIRPLWRHYYTGTQGLIFVVDCADRDRIDEARQELHRIINDREMRDAIILIFANKQDLPDAMKPHEIQEKLGLTRIRDRNWYVQPSCATSGDGLYEGLTWLTSNYKS
partner: B1 chain

Variants of: B1
Conditions: with arf6_human ARF6, P62330

| Variant | effect of a mutation on the interaction |
| --- | --- |
| D147H | decreasing interaction strength |
| A509V | with no effect |

Variants of: B2
Conditions: with TBC1D24, Q9ULP9-2

| Variant | effect of a mutation on the interaction |
| --- | --- |
| T27N | increasing interaction strength |
| Q67L | with no effect |
